Assay [1] deals with T1, human IL-2R βγ heterodimer, subunit-Fc knobs-into-holes fusion (human).
T1 construct: The entries may hold a leader peptide; also called Hu IL-2R βγ; human IL2-R β knob γ hole heterodimer
The experiment in a line: SPR, receptor on CM5, 25°C, apparent KD, 1:1 fit. For orientation: SPR reads the build-up and loss of mass on a sensor chip optically.

The target of assay [2] is T2, murine IL-2R α-subunit, recombinant monomeric (murine, UniProt P01590 22-236, limits assumed).
T2 construct: also called Mu IL-2R α
T2 sequence (looked up): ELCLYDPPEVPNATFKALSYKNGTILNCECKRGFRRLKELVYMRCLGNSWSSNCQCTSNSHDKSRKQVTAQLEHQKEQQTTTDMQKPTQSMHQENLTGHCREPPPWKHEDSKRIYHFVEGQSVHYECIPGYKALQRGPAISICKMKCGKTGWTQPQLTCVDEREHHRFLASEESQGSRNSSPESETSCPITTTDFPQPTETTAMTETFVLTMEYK
As to the kind of experiment: SPR, receptor on CM5, 25°C.

Assay [3] concerns the target T3, cynomolgus IL-2R α-subunit, recombinant monomeric (cynomolgus, UniProt H6WS54 22-240).
T3 construct: also called Cyno IL-2R α
T3 sequence: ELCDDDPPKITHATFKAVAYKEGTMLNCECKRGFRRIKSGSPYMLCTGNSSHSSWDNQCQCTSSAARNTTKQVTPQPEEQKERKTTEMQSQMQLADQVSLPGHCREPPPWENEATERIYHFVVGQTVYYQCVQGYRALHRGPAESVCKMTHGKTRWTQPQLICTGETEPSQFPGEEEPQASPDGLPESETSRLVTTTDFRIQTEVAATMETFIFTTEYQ
As to the kind of experiment: SPR, receptor on CM5, 25°C.

Assay [4] has as its target T4, human FAP expressed on stably transfected HEK293 cells (human, UniProt Q12884 1-760).
T4 construct: whole, on cells
As to the kind of experiment: FACS on HEK 293-human FAP cells, median fluorescence against concentration.

For assay [5], the target named is T5, IL-2R βγ heterodimer on human cells (NK92 cells, NK and T cells of PBMC) (human, UniProt P14784 27-551; P31785 23-369).
T5 sequence (looked up) 1: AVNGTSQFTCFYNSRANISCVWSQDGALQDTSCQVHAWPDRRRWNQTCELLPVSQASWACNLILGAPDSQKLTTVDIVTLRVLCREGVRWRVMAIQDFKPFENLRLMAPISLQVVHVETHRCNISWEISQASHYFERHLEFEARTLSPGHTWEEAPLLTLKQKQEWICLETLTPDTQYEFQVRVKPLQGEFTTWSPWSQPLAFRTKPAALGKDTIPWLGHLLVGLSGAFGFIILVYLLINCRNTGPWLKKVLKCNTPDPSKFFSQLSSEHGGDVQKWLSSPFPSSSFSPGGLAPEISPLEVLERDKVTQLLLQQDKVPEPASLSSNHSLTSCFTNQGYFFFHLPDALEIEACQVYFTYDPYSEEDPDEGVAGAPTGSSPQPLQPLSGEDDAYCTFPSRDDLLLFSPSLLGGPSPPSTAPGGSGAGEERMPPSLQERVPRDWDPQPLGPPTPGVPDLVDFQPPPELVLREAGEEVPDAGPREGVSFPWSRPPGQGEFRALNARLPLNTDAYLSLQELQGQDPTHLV
T5 sequence (looked up) 2: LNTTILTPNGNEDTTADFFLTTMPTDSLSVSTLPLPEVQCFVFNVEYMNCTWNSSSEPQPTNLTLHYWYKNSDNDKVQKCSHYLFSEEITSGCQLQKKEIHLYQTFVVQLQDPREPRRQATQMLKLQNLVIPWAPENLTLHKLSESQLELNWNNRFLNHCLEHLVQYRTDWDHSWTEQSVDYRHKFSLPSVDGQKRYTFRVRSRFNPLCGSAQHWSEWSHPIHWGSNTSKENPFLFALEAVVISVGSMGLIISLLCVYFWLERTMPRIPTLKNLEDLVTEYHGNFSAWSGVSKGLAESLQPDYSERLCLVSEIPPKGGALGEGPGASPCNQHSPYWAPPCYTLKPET
As to the kind of experiment: cell-based or functional assay.

For assay [6], the target named is T1, human IL-2R βγ heterodimer, subunit-Fc …. The experiment in a line: SPR, receptor on CM5, 37°C, 1:1 fit.
The target in assay [7] is T6, murine IL-2R βγ heterodimer (β knob γ hole Fc fusion) (murine, UniProt P16297 27-240; P34902 23-263).
T6 construct: also called Mu IL-2R βγ; mouse IL-2R βγ heterodimer; not shown: Fc knob/hole part
T6 sequence (looked up) 1: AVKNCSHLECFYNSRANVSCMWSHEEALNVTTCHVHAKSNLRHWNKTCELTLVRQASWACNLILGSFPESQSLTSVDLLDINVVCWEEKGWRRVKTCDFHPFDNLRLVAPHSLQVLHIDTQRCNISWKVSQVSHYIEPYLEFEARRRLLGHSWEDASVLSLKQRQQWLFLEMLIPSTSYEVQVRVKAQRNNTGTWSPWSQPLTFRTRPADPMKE
T6 sequence (looked up) 2: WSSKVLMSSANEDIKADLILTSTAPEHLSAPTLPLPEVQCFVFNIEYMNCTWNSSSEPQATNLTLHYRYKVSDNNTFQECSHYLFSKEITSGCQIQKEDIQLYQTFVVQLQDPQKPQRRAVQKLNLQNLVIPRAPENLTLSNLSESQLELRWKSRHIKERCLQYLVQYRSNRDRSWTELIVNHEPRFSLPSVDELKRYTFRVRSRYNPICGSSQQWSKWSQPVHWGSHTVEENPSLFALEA
The experiment in a line: SPR, receptor on CM5, 37°C, 1:1 fit.

Assay [8] concerns the target T7, cynomolgus IL-2R βγ heterodimer (β knob γ hole Fc fusion) (cynomolgus).
T7 construct: also called Cyno IL-2R βγ
The experiment in a line: SPR, receptor on CM5, 37°C, 1:1 fit.

In assay [9] the target is FAP on GM05389 fibroblasts. As to the kind of experiment: FACS on GM05389 fibroblasts, surface-bound construct detected with secondary antibody after the times shown (internalization analysis); concentration not shown.
For assay [10], the target named is T8, human DPPIV on transfected HEK 293 cells (human, UniProt P27487 1-766).
T8 construct: whole, on cells; also called CD26
The experiment in a line: FACS on HEK 293-human DPPIV cells, with HEK mock-transfected cells, cells only and sec. antibody as controls; concentration not shown.

The target of assay [11] is T1, human IL-2R βγ heterodimer, subunit-Fc …. As to the kind of experiment: SPR, receptor on CM5, 25°C, 1:1 fit.
Assay [12] concerns the target T6, murine IL-2R βγ heterodimer (β knob γ …). As to the kind of experiment: SPR, receptor on CM5, 25°C, 1:1 fit.
Assay [13] has as its target T7, cynomolgus IL-2R βγ heterodimer (β knob …). The experiment in a line: SPR, receptor on CM5, 25°C, 1:1 fit.
Assay [14] deals with T9, human IL-2R α-subunit, monomeric, with AcTev cleavage site and Avi His tag (human).
T9 construct: also called Hu IL-2R α; CD25
T9 chain: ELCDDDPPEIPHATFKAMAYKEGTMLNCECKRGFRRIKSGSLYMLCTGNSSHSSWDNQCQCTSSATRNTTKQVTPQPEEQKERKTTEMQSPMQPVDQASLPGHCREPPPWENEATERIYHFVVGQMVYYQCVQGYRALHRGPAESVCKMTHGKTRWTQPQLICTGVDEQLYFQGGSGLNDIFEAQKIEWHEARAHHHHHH
The experiment in a line: SPR, receptor on CM5, 25°C.

Assay [15] has as its target T4, human FAP expressed on stably …. As to the kind of experiment: FACS on FAP-expressing HEK cells.

The values that follow come from patent US20190322765A1 (Hoffmann-La Roche, published 2019).

As usually defined, the EC50 (read off the curve) is the concentration that produces a half-maximal response. Higher therefore signals a less potent agent. By EC50 is commonly meant the concentration that produces a half-maximal response.

“And” between values parts separate entries of the source, which are not always exact repeats. Equal entries are not always repeated.

B1: 28H1 Fab-IL-2 qm-Fab (other)
chain: EVQLLESGGGLVQPGGSLRLSCAASGFTFSSHAMSWVRQAPGKGLEWVSAIWASGEQYYADSVKGRFTISRDNSKNTLYLQMNSLRAEDTAVYYCAKGWLGNFDYWGQGTLVTVSSASTKGPSVFPLAPSSKSTSGGTAALGCLVKDYFPEPVTVSWNSGALTSGVHTFPAVLQSSGLYSLSSVVTVPSSSLGTQTYICNVNHKPSNTKVDKKVEPKSCDSGGGGSGGGGSGGGGAPASSSTKKTQLQLEHLLLDLQMILNGINNYKNPKLTRMLTAKFAMPKKATELKHLQCLEEELKPLEEVLNGAQSKNFHLRPRDLISNINVIVLELKGSETTFMCEYADETATIVEFLNRWITFAQSIISTLTSGGGGSGGGGSGGGGEVQLLESGGGLVQPGGSLRLSCAASGFTFSSHAMSWVRQAPGKGLEWVSAIWASGEQYYADSVKGRFTISRDNSKNTLYLQMNSLRAEDTAVYYCAKGWLGNFDYWGQGTLVTVSSASTKGPSVFPLAPSSKSTSGGTAALGCLVKDYFPEPVTVSWNSGALTSGVHTFPAVLQSSGLYSLSSVVTVPSSSLGTQTYICNVNHKPSNTKVDKKVEPKSCD
light: EIVLTQSPGTLSLSPGERATLSCRASQSVSRSYLAWYQQKPGQAPRLLIIGASTRATGIPDRFSGSGSGTDFTLTISRLEPEDFAVYYCQQGQVIPPTFGQGTKVEIKRTVAAPSVFIFPPSDEQLKSGTASVVCLLNNFYPREAKVQWKVDNALQSGNSQESVTEQDSKDSTYSLSSTLTLSKADYEKHKVYACEVTHQGLSSPVTKSFNRGEC
notes: Fab-IL-2-Fab immunoconjugate against FAP with quadruple mutant IL-2; also called FAP 28H1 qm
For the molecule B1, the Kd in assay [1] was 11.4 nM; in assay [6], 14.3 nM and 14.7 nM; in assay [7] it was 142 nM and 106 nM; in assay [8], 21.3 nM and 21.2 nM; in assay [11], 7.5 nM and 6.9 nM; in [12], 66 nM and 54 nM. Moreover, in assay [13], the Kd was 8.9 nM and 8.4 nM. Moreover, the binding result in assay [2] is “no binding (tested: 25 nM)”; in assay [3], “no binding (tested: 25 nM)”; in assay [9] it was “binds”; in assay [10], “no binding”; in assay [14] it was “no binding (tested: 300 nM)”. In addition, in [4], the half-maximal effective concentration (EC50 (read off the curve)) was ~10 nM. In addition, the “EC50 of STAT5 phosphorylation, CD8+ T cells” value in [5] turned out to be 20.6 nM. In addition, the “EC50 of STAT5 phosphorylation, NK cells” value in assay [5] turned out to be 3.47 nM. Further, the “EC50 of STAT5 phosphorylation, Treg cells” value in assay [5] is 19.7 nM. Also, the half-maximal effective concentration (EC50) in [15] was determined as 0.7 nM.
